Measurements from patent US20050037969A1 (ARBOR VITA, published 2005).
Ends that are not written are not given here. * marks the point of attachment. Biotin = O=C1N[C@H]2[C@H](CS[C@H]2CCCCC(=O)*)N1

T1: GST-cytohesin binding protein PDZ domain fusion protein (Homo sapiens (Human), UniProt O60759 74-165)
T1 construct: also called CBP; not shown: glutathione S-transferase encoded by vector pGEX-3X (Pharmacia)
T1 sequence: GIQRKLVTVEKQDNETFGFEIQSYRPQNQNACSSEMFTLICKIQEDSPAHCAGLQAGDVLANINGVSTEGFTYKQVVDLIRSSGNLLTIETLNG

T2: ConEn PDZ-GST fusion protein (Homo sapiens (Human), UniProt Q969H4 193-287)
T2 construct: The label ConEn is not explained in the excerpts
T2 sequence: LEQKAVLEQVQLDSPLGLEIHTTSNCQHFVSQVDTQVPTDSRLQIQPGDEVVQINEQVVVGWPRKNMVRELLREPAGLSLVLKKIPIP

T3: GST-prIL16 fusion protein (PDZ domains 1-2) (Homo sapiens (Human), UniProt Q14005 1111-1324)
T3 construct: also called putative interleukin 16 precursor; not shown: glutathione S-transferase encoded by vector pGEX-3X (Pharmacia)
T3 sequence: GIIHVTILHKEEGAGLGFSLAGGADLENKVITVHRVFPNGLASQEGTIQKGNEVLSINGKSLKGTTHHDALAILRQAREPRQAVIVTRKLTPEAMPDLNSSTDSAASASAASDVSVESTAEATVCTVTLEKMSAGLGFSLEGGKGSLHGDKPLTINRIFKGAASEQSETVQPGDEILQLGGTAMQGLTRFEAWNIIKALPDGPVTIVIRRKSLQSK

T4: GST-TAX-IP40 PDZ domain fusion protein (human, UniProt Q6B4M5 150-252 (rat entry))
T4 construct: also called TAX40; not shown: glutathione S-transferase encoded by vector pGEX-3X (Pharmacia)
T4 sequence: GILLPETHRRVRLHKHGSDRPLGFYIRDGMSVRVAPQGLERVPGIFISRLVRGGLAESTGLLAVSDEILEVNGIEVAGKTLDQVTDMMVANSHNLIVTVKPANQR

T5: GST-PDZK1 fusion protein (PDZ domains 2-4) (Homo sapiens, UniProt Q5T2W1 134-457)
T5 construct: not shown: glutathione S-transferase encoded by vector pGEX-3X (Pharmacia)
T5 sequence: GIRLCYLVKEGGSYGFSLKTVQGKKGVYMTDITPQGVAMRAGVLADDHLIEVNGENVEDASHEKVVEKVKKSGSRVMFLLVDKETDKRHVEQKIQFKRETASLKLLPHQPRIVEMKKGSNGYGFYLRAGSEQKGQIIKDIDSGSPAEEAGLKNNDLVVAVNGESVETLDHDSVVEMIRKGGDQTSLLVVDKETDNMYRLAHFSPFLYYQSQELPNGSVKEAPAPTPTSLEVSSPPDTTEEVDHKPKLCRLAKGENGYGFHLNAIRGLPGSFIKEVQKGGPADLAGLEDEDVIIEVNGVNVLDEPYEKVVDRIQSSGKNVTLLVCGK

T6: X11β PDZ-GST fusion protein (Rattus norvegicus (Rat), UniProt O35431 560-745)
T6 construct: Order of GST and PDZ part and limits not seen in the excerpts
T6 chain: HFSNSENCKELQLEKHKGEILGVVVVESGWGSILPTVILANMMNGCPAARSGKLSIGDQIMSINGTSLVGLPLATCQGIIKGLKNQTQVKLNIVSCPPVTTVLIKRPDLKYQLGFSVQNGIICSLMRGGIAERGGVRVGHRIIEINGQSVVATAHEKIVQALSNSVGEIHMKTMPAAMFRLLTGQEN

T7: K858 PDZ-GST fusion protein (Homo sapiens (Human), UniProt Q8WWI1 1038-1131)
T7 construct: Order of GST and PDZ part and limits not seen in the excerpts
T7 sequence: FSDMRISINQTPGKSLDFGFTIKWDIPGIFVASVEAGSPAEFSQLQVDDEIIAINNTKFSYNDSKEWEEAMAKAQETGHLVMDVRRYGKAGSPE

T8: GST-TAX-IP2 PDZ domain fusion protein (human, UniProt O14908 129-216)
T8 construct: also called TAX-1P2; TAX2; not shown: glutathione S-transferase encoded by vector pGEX-3X (Pharmacia)
T8 chain: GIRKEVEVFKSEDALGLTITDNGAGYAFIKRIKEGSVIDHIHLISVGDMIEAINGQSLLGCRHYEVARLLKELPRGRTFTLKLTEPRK

T9: GST-AF6 PDZ domain fusion protein (Homo sapiens (Human), UniProt P55196 1001-1093)
T9 construct: also called af-6 protein; not shown: glutathione S-transferase encoded by vector pGEX-3X (Pharmacia)
T9 sequence: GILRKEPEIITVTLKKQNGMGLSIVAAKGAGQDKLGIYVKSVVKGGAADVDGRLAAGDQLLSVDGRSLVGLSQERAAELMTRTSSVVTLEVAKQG

T10: GST-MPP1 PDZ domain fusion protein (Homo sapiens (Human), UniProt Q00013 67-152)
T10 construct: also called p55; 55 Kd erythrocyte membrane protein; not shown: glutathione S-transferase encoded by vector pGEX-3X (Pharmacia)
T10 sequence: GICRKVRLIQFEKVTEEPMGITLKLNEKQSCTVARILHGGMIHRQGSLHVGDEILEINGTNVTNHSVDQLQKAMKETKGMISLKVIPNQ

T11: GST-LIM protein PDZ domain fusion protein (Human, UniProt Q96HC4 2-85)
T11 construct: also called Human LIM protein; not shown: glutathione S-transferase encoded by vector pGEX-3X (Pharmacia)
T11 sequence: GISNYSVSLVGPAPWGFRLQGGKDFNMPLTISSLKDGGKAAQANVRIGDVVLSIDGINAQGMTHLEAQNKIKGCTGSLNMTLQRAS

T12: GST-RGS12 PDZ domain fusion protein (human, UniProt O14924 17-85)
T12 construct: also called human regulator of G-protein signalling 12; not shown: glutathione S-transferase encoded by vector pGEX-3X (Pharmacia)
T12 sequence: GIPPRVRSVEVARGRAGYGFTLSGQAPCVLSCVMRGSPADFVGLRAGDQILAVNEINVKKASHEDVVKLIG


Target: T1, GST-cytohesin binding protein PDZ …
Assay: A/G assays

Binding result, no binding:
Biotin-TSGTGHNQTRALRASESGI (also called CD97 (CD55L)) [CD97 C-terminal peptide AA14L, biotinylated]
Biotin-SPQPDSTDNDDYDDISAA [CD6 C-terminal peptide AA6L, biotinylated]
Biotin-HKAEIHAQPSDKERLTSDA (also called CD49F (Aform, alpha6)) [CD49F C-terminal peptide AA12L, biotinylated]
Biotin-ISGTPTSTMVHGMTSSSSVV [Clasp-2 C-terminal peptide AA2L, biotinylated]

Target: T2, ConEn PDZ-GST fusion protein
Assay: A/G assays

Binding result, no binding:
Biotin-TSGTGHNQTRALRASESGI (also called CD97 (CD55L)) [CD97 C-terminal peptide AA14L, biotinylated]
Biotin-SPQPDSTDNDDYDDISAA [CD6 C-terminal peptide AA6L, biotinylated]
Biotin-HKAEIHAQPSDKERLTSDA (also called CD49F (Aform, alpha6)) [CD49F C-terminal peptide AA12L, biotinylated]
Biotin-ISGTPTSTMVHGMTSSSSVV [Clasp-2 C-terminal peptide AA2L, biotinylated]

Target: T3, GST-prIL16 fusion protein (PDZ domains …)
Assay: A/G assays

Binding result, no binding:
Biotin-TSGTGHNQTRALRASESGI (also called CD97 (CD55L)) [CD97 C-terminal peptide AA14L, biotinylated]
Biotin-SPQPDSTDNDDYDDISAA [CD6 C-terminal peptide AA6L, biotinylated]
Biotin-HKAEIHAQPSDKERLTSDA (also called CD49F (Aform, alpha6)) [CD49F C-terminal peptide AA12L, biotinylated]
Biotin-ISGTPTSTMVHGMTSSSSVV [Clasp-2 C-terminal peptide AA2L, biotinylated]

Target: T13, NSP PDZ-GST fusion protein (Homo sapiens (Human), UniProt Q92743 370-466)
T13 construct: The label NSP is not explained in the excerpts
Assay: A/G assays

T13 sequence (Q92743 other isoform, or with tags, fused parts or gaps limits assumed): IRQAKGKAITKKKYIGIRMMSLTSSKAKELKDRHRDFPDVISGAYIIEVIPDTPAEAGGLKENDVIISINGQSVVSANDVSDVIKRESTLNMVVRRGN

Binding result, no binding:
Biotin-TSGTGHNQTRALRASESGI (also called CD97 (CD55L)) [CD97 C-terminal peptide AA14L, biotinylated]
Biotin-SPQPDSTDNDDYDDISAA [CD6 C-terminal peptide AA6L, biotinylated]
Biotin-HKAEIHAQPSDKERLTSDA (also called CD49F (Aform, alpha6)) [CD49F C-terminal peptide AA12L, biotinylated]
Biotin-ISGTPTSTMVHGMTSSSSVV [Clasp-2 C-terminal peptide AA2L, biotinylated]

Target: T4, GST-TAX-IP40 PDZ domain fusion protein
Assay: A/G assays

Binding result, no binding:
Biotin-TSGTGHNQTRALRASESGI (also called CD97 (CD55L)) [CD97 C-terminal peptide AA14L, biotinylated]
Biotin-SPQPDSTDNDDYDDISAA [CD6 C-terminal peptide AA6L, biotinylated]
Biotin-HKAEIHAQPSDKERLTSDA (also called CD49F (Aform, alpha6)) [CD49F C-terminal peptide AA12L, biotinylated]
Biotin-ISGTPTSTMVHGMTSSSSVV [Clasp-2 C-terminal peptide AA2L, biotinylated]

Target: T5, GST-PDZK1 fusion protein (PDZ domains …)
Assay: A/G assays

Binding result, no binding:
Biotin-TSGTGHNQTRALRASESGI (also called CD97 (CD55L)) [CD97 C-terminal peptide AA14L, biotinylated]
Biotin-SPQPDSTDNDDYDDISAA [CD6 C-terminal peptide AA6L, biotinylated]
Biotin-HKAEIHAQPSDKERLTSDA (also called CD49F (Aform, alpha6)) [CD49F C-terminal peptide AA12L, biotinylated]
Biotin-ISGTPTSTMVHGMTSSSSVV [Clasp-2 C-terminal peptide AA2L, biotinylated]

Target: T6, X11β PDZ-GST fusion protein
Assay: A/G assays

Binding result, no binding:
Biotin-TSGTGHNQTRALRASESGI (also called CD97 (CD55L)) [CD97 C-terminal peptide AA14L, biotinylated]
Biotin-SPQPDSTDNDDYDDISAA [CD6 C-terminal peptide AA6L, biotinylated]
Biotin-HKAEIHAQPSDKERLTSDA (also called CD49F (Aform, alpha6)) [CD49F C-terminal peptide AA12L, biotinylated]
Biotin-ISGTPTSTMVHGMTSSSSVV [Clasp-2 C-terminal peptide AA2L, biotinylated]

Target: T7, K858 PDZ-GST fusion protein
Assay: A/G assays

Binding result, no binding:
Biotin-TSGTGHNQTRALRASESGI (also called CD97 (CD55L)) [CD97 C-terminal peptide AA14L, biotinylated]
Biotin-SPQPDSTDNDDYDDISAA [CD6 C-terminal peptide AA6L, biotinylated]
Biotin-HKAEIHAQPSDKERLTSDA (also called CD49F (Aform, alpha6)) [CD49F C-terminal peptide AA12L, biotinylated]
Biotin-ISGTPTSTMVHGMTSSSSVV [Clasp-2 C-terminal peptide AA2L, biotinylated]

Target: T8, GST-TAX-IP2 PDZ domain fusion protein
Assay: A/G assays

Binding result, no binding:
Biotin-TSGTGHNQTRALRASESGI (also called CD97 (CD55L)) [CD97 C-terminal peptide AA14L, biotinylated]
Biotin-SPQPDSTDNDDYDDISAA [CD6 C-terminal peptide AA6L, biotinylated]
Biotin-HKAEIHAQPSDKERLTSDA (also called CD49F (Aform, alpha6)) [CD49F C-terminal peptide AA12L, biotinylated]
Biotin-ISGTPTSTMVHGMTSSSSVV [Clasp-2 C-terminal peptide AA2L, biotinylated]

Target: T9, GST-AF6 PDZ domain fusion protein
Assay: A/G assays

Binding result, no binding:
Biotin-TSGTGHNQTRALRASESGI (also called CD97 (CD55L)) [CD97 C-terminal peptide AA14L, biotinylated]
Biotin-SPQPDSTDNDDYDDISAA [CD6 C-terminal peptide AA6L, biotinylated]
Biotin-HKAEIHAQPSDKERLTSDA (also called CD49F (Aform, alpha6)) [CD49F C-terminal peptide AA12L, biotinylated]
Biotin-ISGTPTSTMVHGMTSSSSVV [Clasp-2 C-terminal peptide AA2L, biotinylated]

Target: T10, GST-MPP1 PDZ domain fusion protein
Assay: A/G assays

Binding result, no binding:
Biotin-TSGTGHNQTRALRASESGI (also called CD97 (CD55L)) [CD97 C-terminal peptide AA14L, biotinylated]
Biotin-SPQPDSTDNDDYDDISAA [CD6 C-terminal peptide AA6L, biotinylated]
Biotin-HKAEIHAQPSDKERLTSDA (also called CD49F (Aform, alpha6)) [CD49F C-terminal peptide AA12L, biotinylated]
Biotin-ISGTPTSTMVHGMTSSSSVV [Clasp-2 C-terminal peptide AA2L, biotinylated]

Target: T14, GST-TIAM1 PDZ domain fusion protein (Homo sapiens (Human), UniProt Q13009 845-931)
T14 construct: also called TLAM1; T-lymphoma invasion and metastasis inducing protein 1; not shown: glutathione S-transferase encoded by vector pGEX-3X (Pharmacia)
Assay: A/G assays

T14 sequence (Q13009 other isoform, or with tags, fused parts or gaps): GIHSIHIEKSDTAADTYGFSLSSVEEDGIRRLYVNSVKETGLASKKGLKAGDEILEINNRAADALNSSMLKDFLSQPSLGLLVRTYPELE

Binding result, no binding:
Biotin-TSGTGHNQTRALRASESGI (also called CD97 (CD55L)) [CD97 C-terminal peptide AA14L, biotinylated]
Biotin-SPQPDSTDNDDYDDISAA [CD6 C-terminal peptide AA6L, biotinylated]
Biotin-HKAEIHAQPSDKERLTSDA (also called CD49F (Aform, alpha6)) [CD49F C-terminal peptide AA12L, biotinylated]
Biotin-ISGTPTSTMVHGMTSSSSVV [Clasp-2 C-terminal peptide AA2L, biotinylated]

Target: T11, GST-LIM protein PDZ domain fusion …
Assay: A/G assays

Binding result, no binding:
Biotin-TSGTGHNQTRALRASESGI (also called CD97 (CD55L)) [CD97 C-terminal peptide AA14L, biotinylated]
Biotin-SPQPDSTDNDDYDDISAA [CD6 C-terminal peptide AA6L, biotinylated]
Biotin-HKAEIHAQPSDKERLTSDA (also called CD49F (Aform, alpha6)) [CD49F C-terminal peptide AA12L, biotinylated]
Biotin-ISGTPTSTMVHGMTSSSSVV [Clasp-2 C-terminal peptide AA2L, biotinylated]

Target: T12, GST-RGS12 PDZ domain fusion protein
Assay: A/G assays

Binding result, no binding:
Biotin-TSGTGHNQTRALRASESGI (also called CD97 (CD55L)) [CD97 C-terminal peptide AA14L, biotinylated]
Biotin-SPQPDSTDNDDYDDISAA [CD6 C-terminal peptide AA6L, biotinylated]
Biotin-HKAEIHAQPSDKERLTSDA (also called CD49F (Aform, alpha6)) [CD49F C-terminal peptide AA12L, biotinylated]
Biotin-ISGTPTSTMVHGMTSSSSVV [Clasp-2 C-terminal peptide AA2L, biotinylated]
